From patent US7176008B2, “Process for producing activated thrombin-activatable fibrinolysis inhibitor” (Merck & Co., Inc., priority 2002, dated 2007)

Substrate: CSCC[C@H](NC(=O)[C@H](CC(C)C)NC(=O)CNC(=O)CCCCCNC(=O)CCCCCNC(=O)CCCC[C@@H]1SC[C@@H]2NC(=O)N[C@@H]21)C(=O)N[C@H](C(=O)NCC(=O)NCC(=O)N[C@H](C(=O)N[C@H](C(=O)N[C@@H](CCCNC(=N)N)C(=O)O)C(C)C)C(C)C)C(C)C
Assay: purified protein, by the assay type
Details: other: room temperature
Description: A typical assay (75 μL) contained each studied carboxypeptidase and selected inhibitors (in 5 μL DMSO) in HBSP buffer in 96-well round bottom microtiter plates (Costar 3365 plates). Enzyme and compound were preincubated for 15–30 minutes at room temperature. […] The final substrate concentration was 15 to 50 nM. The amount of carboxypeptidase activity was titrated to result in 40,000–50,000 electrochemiluminescence counts (typically 0.02–0.1 nM, 0.01 nM, 5 nM, and 0.15–0.65 nM. for TAFIa, CPB, CPN and CPM, respectively). […] Ruthenium-labeled G2-10 (25 μL of 0.063 μg/mL) and streptavidin magnetic beads (25 μL of 0.2 mg/mL, Dynabeads M-280) were added to the quenched solution and shaken at 300 rpm for >1 hr. G2-10 antibody and beads were prepared in a BSA diluent containing 150 mM phosphate, pH 7.8, 150 mM NaCl, 3% (w/v) BSA (protease free fraction V) and 0.05% NaN3. The volume was brought to 250 μL with HBSP and read on an Igen 96-well electrochemiluminescence plate reader (M8 Analyzer) at 620 nm. […]
All measurements were performed in at least duplicates and the inhibition constants (Ki) were determined by the equation below wherein Vo and Vi are activity in the absence and presence of inhibitors, respectively. […]
Hydrolysis of substrate was measured in HBSP (pH 7.4) for TAFIa, CPB, CPM, and CPM. […]

| Protein | Km (HBSP pH 7.4) | Km |
| --- | --- | --- |
| CPB (Homo sapiens) (protein) ATGHSYEKYNKWETIEAWTQQVATENPALISRSVIGTTFEGRAIYLLKVGKAGQNKPAIFMDCGFHAREWISPAFCQWFVREAVRTYGREIQVTELLDKLDFYVLPVLNIDGYIYTWTKSRFWRKTRSTHTGSSCIGTDPNRNFDAGWCEIGASRNPCDETYCGPAAESEKETKALADFIRNKLSSIKAYLTIHSYSQMMIYPYSYAYKLGENNAELNALAKATVKELASLHGTKYTYGPGATTIYPAAGGSDDWAYDQGIRYSFTFELRDTGRYGFLLPESQIRATCEETFLAIKYVASYVLEHLY | 12 µM | – |
| TAFIa (Homo sapiens) (protein) ASASYYEQYHSLNEIYSWIEFITERHPDMLTKIHIGSSFEKYPLYVLKVSGKEQAAKNAIWIDCGIHAREWISPAFCLWFIGHITQFYGIIGQYTNLLRLVDFYVMPVVNVDGYDYSWKKNRMWRKNRSFYANNHCIGTDLNRNFASKHWCEEGASSSSCSETYCGLYPESEPEVKAVASFLRRNINQIKAYISMHSYSQHIVFPYSYTRSKSKDHEELSLVASEAVRAIEKISKNTRYTHGHGSETLYLAPGGGDDWIYDLGIKYSFTIELRDTGTYGFLLPERYIKPTCREAFAAVSKIAWHVIRNV | 8 µM | – |
| CPM (Homo sapiens) (protein) LDFNYHRQEGMEAFLKTVAQNYSSVTHLHSIGKSVKGRNLWVLVVGRFPKEHRIGIPEFKYVANMHGDETVGRELLLHLIDYLVTSDGKDPEITNLINSTRIHIMPSMNPDGFEAVKKPDCYYSIGRENYNQYDLNRNFPDAFEYNNVSRQPETVAVMKWLKTETFVLSANLHGGALVASYPFDNGVQATGALYSRSLTPDDDVFQYLAHTYASRNPNMKKGDECKNKMNFPNGVTNGYSWYPLQGGMQDYNYIWAQCFEITLELSCCKYPREEKLPSFWNNNKASLIEYIKQVHLGVKGQVFDQNGNPLPNVIVEVQDRKHICPYRTNKYGEYYLLLLPGSYIINVTVPGHDPHITKVIIPEKSQNFSALKKDILLPFQGQLDSIPVSNPSCPMIPLYRNLPDHS | – | 38 µM |
